How the values were obtained:
[1] = molecular target: T1, DR5-IgG (human, UniProt O14763 56-184); assay: BIAcore, immobilized receptor-IgG
T1 construct: also called Apo-2-IgG; not shown: IgG part; prepared as in WO98/51793, not described here

[2] = molecular target: T1, DR5-IgG; assay: BIAcore, immobilized receptor-IgG; against wild-type Apo2L/TRAIL(114-281)
Method: (§1) Briefly, dissociation constants (Kd) for binding of Apo-2L variants (see Tables II and III) to immobilized receptor immunoadhesins were determined from surface plasmon resonance (SPR) measurements on a Pharmacia BIAcore 3000. DR5-IgG (also referred to as Apo-2-IgG) and DcR2-IgG receptor immunoadhesins were prepared as described in WO98/51793 published Nov. 19, 1998 and WO99/10484 published Mar. 9, 1999, respectively. DR4-IgG was prepared as follows. […] Sensorgrams were recorded for Apo-2L binding at concentrations ranging from 15.6 nM to 500 nM in 2-fold increments. The kinetics constants were determined by non-linear regression analysis and used to calculate the binding constants.
KD values determined by BIAcore analysis are reported relative to the value calculated for the wild-type protein. Apoptosis-induction is evaluated from the ED₅₀ value (ng/mL) in the presence and absence of 2 μg/mL M2 antibody (Sigma).

[3] = molecular target: T1, DR5-IgG; assay: AlphaQuest (CARB-AQ) displacement of biotinylated Apo2L/TRAIL from receptor-IgG; against Flag-Apo2L.WT
[4] = molecular target: T1, DR5-IgG; assay: BIAcore; against Flag.Apo2L.WT
Method: as §1

[5] = molecular target: T2, DcR2-IgG (UniProt Q9UBN6 56-211); assay: AlphaQuest (CARB-AQ) displacement of biotinylated Apo2L/TRAIL from receptor-IgG; against Flag-Apo2L.WT
T2 sequence (Q9UBN6 whole entry, species assumed, looked up): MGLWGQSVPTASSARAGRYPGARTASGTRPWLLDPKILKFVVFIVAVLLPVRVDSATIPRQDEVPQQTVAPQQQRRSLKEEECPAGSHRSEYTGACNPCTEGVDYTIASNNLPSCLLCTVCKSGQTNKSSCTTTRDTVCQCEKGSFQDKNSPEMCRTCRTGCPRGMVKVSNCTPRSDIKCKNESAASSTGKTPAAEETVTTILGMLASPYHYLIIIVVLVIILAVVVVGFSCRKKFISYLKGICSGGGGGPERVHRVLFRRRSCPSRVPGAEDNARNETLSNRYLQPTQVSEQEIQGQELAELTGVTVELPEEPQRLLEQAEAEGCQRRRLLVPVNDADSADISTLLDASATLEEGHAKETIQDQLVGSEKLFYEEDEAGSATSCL

[6] = molecular target: T3, DcR1 receptor-IgG (UniProt O14798 26-236); assay: as above
T3 construct: Captured as receptor-IgG on Protein A beads; construct not described
T3 sequence (O14798 whole entry, species assumed, looked up): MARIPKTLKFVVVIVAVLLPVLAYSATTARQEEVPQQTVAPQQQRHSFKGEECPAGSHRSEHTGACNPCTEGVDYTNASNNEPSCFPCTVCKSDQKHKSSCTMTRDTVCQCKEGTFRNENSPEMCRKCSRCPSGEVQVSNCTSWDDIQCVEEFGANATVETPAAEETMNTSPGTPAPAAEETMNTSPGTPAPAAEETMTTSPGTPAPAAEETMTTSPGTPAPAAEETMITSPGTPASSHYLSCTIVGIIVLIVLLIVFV

[7] = molecular target: T4, BSA (UniProt P02769 25-607); assay: spot ELISA, phage on coated protein
T4 construct: Control protein of the spot ELISA

[8] = molecular target: T1, DR5-IgG; assay: competition phage ELISA: phage clone on wells coated with DR4-IgG, competed by rising soluble DR5-IgG, bound phage detected with anti-M13 antibody-HRP, A450
Method: Relative binding strengths for 4 of the clones from the DR4 library were determined by competition phage ELISA (FIGS. 15 and 16). In this assay, a fixed concentration of phage is added to wells coated with receptor-IgG in the presence of an increasing concentration of receptor-IgG in solution. After incubation to allow binding and washing to remove unbound phage, the bound phage is determined with the HRP-coupled, anti-M13 antibody (Pharmacia). Analysis of the ELISA signal as a function of receptor-IgG concentration in solution by using a 4-parameter fit yields the IC50 value. Since the IC50 value will vary with phage concentration, the phage clones were first titered to determine the dilution giving equal signal strength for the 4 clones.

B1: Apo2L.DR5-8 (ligand)
chain: VRERGPQRVAAHITGTRGRSNTLSSPNSKNEKALGRKINSWESSRSGHSFLSNLHLRNGELVIHEKGFYYIYSQTQFKFREEIKENTKNDKQMVQYIYKYTSYPDPILLMKSARNSCWSKDAEYGLYSIYQGGIFELKENDRIFVSVTNERLLQMDHEASFFGAFLVG
notes: also called Apo2L/TRAIL.DR5-8
In the case of B1, the “DR5-binding (ratio relative to wild-type Apo2L)” value [1] is reported as 0.6 ratio.

B2: Apo2L/TRAIL(114-281) mutant DR5-4 (ligand)
chain: VRERGPQRVAAHITGTRGRSNTLSSPNSKNEKALGRKINSWESSRSGHSFLSNLHLRNGELVIHEKGFYYIYSQTAFRFREEIKENTKNDKQMVQYIYKYTSYPDPILLMKSARNSCWSKDAEYGLYSIYQGGIFELKENDRIFVSVTNEQLLDMNHEASFFGAFLVG
notes: Untagged, from pAPOK5.0
For B2, the “KD ratio (mutant/wt)” value [2] was 1.3 ratio.

B3: Flag.Apo2L.DR5-8 (ligand)
chain: VRERGPQRVAAHITGTRGRSNTLSSPNSKNEKALGRKINSWESSRSGHSFLSNLHLRNGELVIHEKGFYYIYSQTQFKFREEIKENTKNDKQMVQYIYKYTSYPDPILLMKSARNSCWSKDAEYGLYSIYQGGIFELKENDRIFVSVTNERLLQMDHEASFFGAFLVG
notes: also called Flag-Apo21.DR5-8; not shown: N-terminal flag tag from pFLAG-MAC
B3 was tested, and the “IC50 ratio (mutant/wt)” value [3] was 0.7 ratio and the “DR5 KD (mut/wt)” value [4] was 0.8 ratio.

B4: Apo2L/TRAIL(114-281) mutant DR5-11 (ligand)
chain: VRERGPQRVAAHITGTRGRSNTLSSPNSKNEKALGRKINSWESSRSGHSFLSNLHLRNGELVIHEKGFYYIYSQTAFRFKEEIKENTKNDKQMVQYIYKYTSYPDPILLMKSARNSCWSKDAEYGLYSIYQGGIFELKENDRIFVSVTNEGLVDMSHEASFFGAFLVG
notes: Untagged, from pAPOK5.0
With B4 the “KD ratio (mutant/wt)” value [2] was 2.2 ratio.

B5: Flag.Apo2L.DR5-23 (ligand)
chain: VRERGPQRVAAHITGTRGRSNTLSSPNSKNEKALGRKINSWESSRSGHSFLSNLHLRNGELVIHEKGFYYIYSQTAFKFREEIKENTKNDKQMVQYIYKYTSYPDPILLMKSARNSCWSKDAEYGLYSIYQGGIFELKENDRIFVSVTNESLLDMEHEASFFGAFLVG
notes: not shown: N-terminal flag tag from pFLAG-MAC
In the case of B5, the “IC50 ratio (mutant/wt)” value [5] is reported as 24 ratio, the “IC50 ratio (mutant/wt)” value [3] is reported as 2.3 ratio and the “DR5 KD (mut/wt)” value [4] is reported as 2.4 ratio.

B6: Flag.Apo2L.DR5-1 (ligand)
chain: VRERGPQRVAAHITGTRGRSNTLSSPNSKNEKALGRKINSWESSRSGHSFLSNLHLRNGELVIHEKGFYYIYSQTAFKFKEEIKENTKNDKQMVQYIYKYTSYPDPILLMKSARNSCWSKDAEYGLYSIYQGGIFELKENDRIFVSVTNEALIDMDHEASFFGAFLVG
notes: as for B5
With B6 the “IC50 ratio (mutant/wt)” value [5] was 32 ratio, the “IC50 ratio (mutant/wt)” value [3] was 2.4 ratio and the “DR5 KD (mut/wt)” value [4] was 2.2 ratio.

B7: Apo2L/TRAIL(114-281) mutant DR5-23 (ligand)
chain: VRERGPQRVAAHITGTRGRSNTLSSPNSKNEKALGRKINSWESSRSGHSFLSNLHLRNGELVIHEKGFYYIYSQTAFKFREEIKENTKNDKQMVQYIYKYTSYPDPILLMKSARNSCWSKDAEYGLYSIYQGGIFELKENDRIFVSVTNESLLDMEHEASFFGAFLVG
notes: Untagged, from pAPOK5.0
B7 was tested, and the “KD ratio (mutant/wt)” value [2] was 2.4 ratio.

B8: Flag.Apo2L.DR4-8 (ligand)
chain: VRERGPQRVAAHITGTRGRSNTLSSPNSKNEKALGRKINSWESSRSGHSFLSNLHLRNGELVIHEKGFYYIYSQTAFRFSEEIKEVTRNDKQMVQYIYKWTDYPDPILLMKSARNSCWSKDAEYGLYSIYQGGIFELKENDRIFVSVTNEHLIDMDHEASFFGAFLVG
notes: as for B5
For B8, the “IC50 ratio (mutant/wt)” value [5] was 15 ratio, the “IC50 ratio (mutant/wt)” value [6] was 5.5 ratio and the “DR5 KD (mut/wt)” value [4] was 1100 ratio.

B9: Apo2L/TRAIL(114-281) mutant DR5-5 (ligand)
chain: VRERGPQRVAAHITGTRGRSNTLSSPNSKNEKALGRKINSWESSRSGHSFLSNLHLRNGELVIHEKGFYYIYSQTSFRFTEEIKENTKNDKQMVQYIYKYTSYPDPILLMKSARNSCWSKDAEYGLYSIYQGGIFELKENDRIFVSVTNEGLLDMNHEASFFGAFLVG
notes: Untagged, from pAPOK5.0
For B9, the “KD ratio (mutant/wt)” value [2] was 2.5 ratio.

B10: Flag.Apo2L.DR5-21 (ligand)
chain: VRERGPQRVAAHITGTRGRSNTLSSPNSKNEKALGRKINSWESSRSGHSFLSNLHLRNGELVIHEKGFYYIYSQTAFKFKEEIKENTKNDKQMVQYIYKYTSYPDPILLMKSARNSCWSKDAEYGLYSIYQGGIFELKENDRIFVSVTNEDLLNMEHEASFFGAFLVG
notes: as for B5
In the case of B10, the “IC50 ratio (mutant/wt)” value [5] is reported as 9.4 ratio, the “IC50 ratio (mutant/wt)” value [3] is reported as 1.9 ratio and the “DR5 KD (mut/wt)” value [4] is reported as 1 ratio.

B11: Apo2L.DR5-8B (ligand)
chain: VRERGPQRVAAHITGTRGRSNTLSSPNSKNEKALGRKINSWESSRSGHSFLSNLHLRNGELVIHEKGFYYIYSQTQFKFREEIKENTKNDKQMVQYIYKYTSYPDPILLMKSARNSCWSKDAEYGLYSIYQGGIFELKENDRIFVSVTNEHLIDMDHEASFFGAFLVG
notes: Subcloned into pAPOK5.0 (114-281 form)
B11 was tested, and the “DR5-binding (ratio relative to wild-type Apo2L)” value [1] was 0.6 ratio.

B12: Apo2L/TRAIL(114-281) mutant DR5-21 (ligand)
chain: VRERGPQRVAAHITGTRGRSNTLSSPNSKNEKALGRKINSWESSRSGHSFLSNLHLRNGELVIHEKGFYYIYSQTAFKFKEEIKENTKNDKQMVQYIYKYTSYPDPILLMKSARNSCWSKDAEYGLYSIYQGGIFELKENDRIFVSVTNEDLLNMEHEASFFGAFLVG
notes: Untagged, from pAPOK5.0; h-0007 lists D267Q
In the case of B12, the “KD ratio (mutant/wt)” value [2] is reported as 1.2 ratio.

B13: Flag.Apo2L.DR5-2 (ligand)
chain: VRERGPQRVAAHITGTRGRSNTLSSPNSKNEKALGRKINSWESSRSGHSFLSNLHLRNGELVIHEKGFYYIYSQTAFKFKEEIKENTKNDKQMVQYIYKYTSYPDPILLMKSARNSCWSKDAEYGLYSIYQGGIFELKENDRIFVSVTNEHLIDMDHEASFFGAFLVG
notes: as for B5
With B13 the “IC50 ratio (mutant/wt)” value [5] was 5 ratio, the “IC50 ratio (mutant/wt)” value [3] was 2.8 ratio and the “DR5 KD (mut/wt)” value [4] was 1.9 ratio.

B14: Flag.Apo2L.DR4-9 (ligand)
chain: VRERGPQRVAAHITGTRGRSNTLSSPNSKNEKALGRKINSWESSRSGHSFLSNLHLRNGELVIHEKGFYYIYSQTAFRFSEEIKERTRNDKQMVQYIYKWTDYPDPILLMKSARNSCWSKDAEYGLYSIYQGGIFELKENDRIFVSVTNEHLIDMDHEASFFGAFLVG
notes: as for B5
With B14 the “IC50 ratio (mutant/wt)” value [5] was 18 ratio, the “IC50 ratio (mutant/wt)” value [6] was 4 ratio and the “DR5 KD (mut/wt)” value [4] was 1200 ratio.

B15: Apo2L.DR5-8C (ligand)
chain: VRERGPQRVAAHITGTRGRSNTLSSPNSKNEKALGRKINSWESSRSGHSFLSNLHLRNGELVIHEKGFYYIYSQTQFKFREEIKENTKNDKQMVQYIYKYTSYPDPILLMKSARNSCWSKDAEYGLYSIYQGGIFELKENDRIFVSVTNEHLLDMDHEASFFGAFLVG
notes: as for B11
For B15, the “DR5-binding (ratio relative to wild-type Apo2L)” value [1] was 0.6 ratio.

B16: DR4-selective phage clone 11 (ligand)
chain: SEETISTVQEKQQNISPLVRERGPQRVAAHITGTRGRSNTLSSPNSKNEKALGRKINSWESSRSGHSFLSNLHLRNGELVIHEKGFYYIYSQTAFRFSEEIKEGTSNDKQMVQYIYKWTDYPDPILLMKSARNSCWSKDAEYGLYSIYQGGIFELKENDRIFVSVTNEHLIDMDHEASFFGAFLVG
notes: also called DR4-11
B16: no binding [7]; no binding (tested: 1000 nM) [8].

B17: DR4-selective phage clone 13 (ligand)
chain: SEETISTVQEKQQNISPLVRERGPQRVAAHITGTRGRSNTLSSPNSKNEKALGRKINSWESSRSGHSFLSNLHLRNGELVIHEKGFYYIYSQTAFRFKEEIKEGTGNDKQMVQYIYKWTDYPDPILLMKSARNSCWSKDAEYGLYSIYQGGIFELKENDRIFVSVTNEHLIDMDHEASFFGAFLVG
notes: also called DR4-13
B17: no binding [7]; no binding (tested: 1000 nM) [8].

— patent US20120165267A1 (Genentech, published 2012)
